Experimental data taken from paper PMC9392796, “A mannose-sensing AraC-type transcriptional activator regulates cell–cell aggregation of Vibrio cholerae” (NPJ Biofilms and Microbiomes, 2022).

B1: MB1 WT (dsDNA)
DNA 1: AGACAGAATGATACAATAATCCAGTTTTAACACCAATTC
DNA 2: GAATTGGTGTTAAAACTGGATTATTGTATCATTCTGTCT
B2: MB2 WT (dsDNA)
DNA 1: CAAACCAATAGAGTTACAATCCTCTAGTGAATGTTTTAT
DNA 2: ATAAAACATTCACTAGAGGATTGTAACTCTATTGGTTTG

Legend:
ManR (VC1825) [1] = target: T1, ManR (VC1825) (Vibrio cholerae, UniProt Q9KR22); details: 50 mM HEPES-NaOH pH 8.0, 500 mM NaCl, 10% glycerol, 1 mM TCEP, 0.5 mg/ml BSA, 0.05% Tween 20, 23 °C; NT-647-labelled protein 2 nM; effector (co-activator)
T1 construct: gene VC_1825

[2] = target: ManR (VC1825), AraC-type transcriptional regulator of Vibrio cholerae (Vibrio cholerae N16961); experiment: not stated; Supplementary Fig. 3; method and conditions not shown
ManR (VC1825) [3] = target: ManR (VC1825) (Vibrio cholerae N16961, UniProt Q9KR22 1-279); experiment: EMSA; one complex; details: protein: recombinant; chain copies: 2; blunt

| Molecule | Kd (ManR (VC1825) [1]) [µM] | binding result (ManR (VC1825) [3]) | also measured |
| --- | --- | --- | --- |
| O=P(O)(O)OCC1(O)O[C@H](CO)[C@@H](O)[C@@H]1O (some centres unmarked) [F1P, fructose 1-phosphate] | ~411 |  |  |
| ManR (VC1825), AraC-type transcriptional regulator of Vibrio cholerae (natural protein) |  |  | stoichiometry N [2]: 2 |
| O=P(O)(O)OC[C@H]1OC(O)[C@@H](O)[C@@H](O)[C@@H]1O (some centres unmarked) [M6P, mannose 6-phosphate] | ~0.152 |  |  |
| B1 |  | binds |  |
| B2 |  | binds |  |
